# Positions count from the first letter of the chain named. Names and notes keep the numbering of the source. Where two headings read alike, the source gives them in different places.
# B1: GlnBP-Acr: S179C variant of E. coli glutamine-binding protein labeled with acrylodan at cysteine 179 (protein, UniProt P0AEQ3 23-248, looked up, variant S179C)
# Glutamine-binding periplasmic …: ADKKLVVATDTAFVPFEFKQGDKYVGFDVDLWAAIAKELKLDYELKPMDFSGIIPALQTKNVDLALAGITITDERKKAIDFSDGYYKSGLLVMVKANNNDVKSVKDLDGKVVAVKSGTGSVDYAKANIKTKDLRQFPNIDNAYMELGTNRADAVLHDTPNILYFIKTAGNGQFKAVGDCLEAQQYGIAFPKGSDELRDKVNGALKTLRENGTYNEIYKKWFGTEPK
# modifications: acrylodan label at C179
# B2: Ru-GlnBP-Acr: S179C GlnBP labeled at the cysteine with acrylodan and at the N-terminal with ruthenium bis-(2,2′-bipyridyl)-1,10-phenanthroline-9-isothiocyanate (protein, UniProt P0AEQ3 23-248, looked up, variant S179C)
# Glutamine-binding periplasmic …: B1 Glutamine-binding periplasmic …
# modifications: acrylodan; N-terminal ruthenium complex label
# notes: S179C GlnBP labeled at the cysteine with acrylodan and at the N-terminal with ruthenium bis-(2,2′-bipyridyl)-1,10-phenanthroline-9-isothiocyanate
# B3: wild type: wild type glutamine-binding protein, literature dissociation constant (protein, UniProt P0AEQ3 23-248, looked up)
# Glutamine-binding periplasmic …: B1 Glutamine-binding periplasmic … with C179S
# What was measured:
# [1] = Fluorescence binding isotherm of labeled S179C GlnBP; details: fit to binding isotherm, read-out: binding constant for glutamine
# Method: The emission spectra were recorded on a Varian Cary Eclipse fluorescence spectrophotometer (Varian Instruments, Walnut Creek, Calif.). All samples were measured in quartz cuvettes (Starna Cells, Inc., Atascadero, Calif.).
# The apparent binding constants were calculated by fitting the experimental results to the binding isotherm (DATTELBAUM et al., Anal. Biochem., 291:89-95 (2001), which is incorporated by reference herein). The binding constants for the single-labeled and doubled-labeled GlnBP were calculated to be 0.23±0.01 μM and 0.28±0.03 μM, respectively. Both were in agreement with the reported value of 100-300 nM for the wild type (SOHANPAL et al., Sensors Actuators B, 11:547-552 (1993), which is incorporated by reference herein). While not wishing to be bound by theory, the reason for this agreement is believed to be that the position of the fluorophore is far from the binding site, consequently, the binding affinity is not greatly affected. The binding constant of GBP for glucose was calculated to be 0.78±0.07 μM, which also agrees well with the reported value of 0.8 μM (HELLINGA et al., Trends Biotechnol., 16:183-189 (1998), which is incorporated by reference herein).
# [2] = Stability and reproducibility of labeled binding proteins by binding assays; assay type: physicochemical; details: 5 months after preparation
# Method: The stability of the binding proteins was determined by binding assays. The labeled binding proteins can be stored in phosphate buffer at 4° C. for at least 5 months. […] While not wishing to be bound by theory, factors that could have caused this change include fluorophore and protein. In any case, the recalibration of the biosensor during its use in fermentation or cell culture is unnecessary because fermentation or cell culture usually lasts from only several hours to a few days.
# [3] = Reported (literature) binding of glutamine to GlnBP; details: yielded by the reported ka and kd; read-out: dissociation constant
# Method: (§1) This figure seeks to illustrate two things. First, the fluorescence intensity of acrylodan (λmax=515 nm) decreased with increasing concentration of glutamine. Concurrently, the luminescence intensity of Ru remained constant at λmax=610 nm. Second, the standard solutions of glutamine (0.1 to 6.4 mM) were prepared in glutamine-free Dulbecco's modified Eagle media (DMEM), a commonly used media for tissue culture. The resulting solutions were then diluted 1000× with PBS and used in the assay. The submicromolar sensitivity of the protein for glutamine remained virtually unchanged from that observed with the acrylodan label alone, as shown in DATTELBAUM et al., Anal. Biochem., 291:89-95 (2001), which is incorporated by reference herein. […]
# The apparent binding constants were calculated by fitting the experimental results to the binding isotherm (DATTELBAUM et al., Anal. Biochem., 291:89-95 (2001), which is incorporated by reference herein). The binding constants for the single-labeled and doubled-labeled GlnBP were calculated to be 0.23±0.01 μM and 0.28±0.03 μM, respectively. […] The binding constant of GBP for glucose was calculated to be 0.78±0.07 μM, which also agrees well with the reported value of 0.8 μM (HELLINGA et al., Trends Biotechnol., 16:183-189 (1998), which is incorporated by reference herein). […]
# [4] = Glutamine measurement in lymphoblast cell culture, GlnBP sensor versus YSI; details: cell culture medium
# Method: The cells used in the cell culture came from two different cell lines, GM010178 and GM14649, both lymphoblasts from […]. These cell lines were obtained commercially from Coriell Cell Repositories, and have been grown in a solution of 15% Fetal Bovine Serum in RPMI Medium 1640 with GlutaMAX™ (Gibco™, Grand Island, N.Y.). For the 100 mL cell culture, 50 mL of fresh medium was mixed with 50 mL of inoculum in a 250 mL polystyrene flask, and then incubated in a CO2 incubator (Precision Scientific, Chicago, Ill.) until the color of the medium turned from red to yellow. 1 mL of sample was taken from the culture every 2 h for analysis. […] The glutamine concentration was then measured with a YSI 2700 Chemistry Analyzer and concurrently with the glutamine biosensor by diluting a small volume of sample 1,000 times. […] One microliter of sample was taken each time and the glutamine concentration was measured with the present biosensor thereafter.
# As in the determination of glucose, analysis of glutamine by the GlnBP sensor was compared to the YSI Chemistry Analyzer. […] The hydrogen peroxide that is released is detected at the platinum electrode. Since glutamate oxidase can also detect the glutamate that is already present in the media, the reading of the glutamine sensor is actually the sum of glutamine and glutamate in the media. […]
# [5] = cited from earlier work
# [6] = Steady-state emission intensity ratio (I515/I610) of Ru-GlnBP-Acr versus glutamine; assay type: binding
# Method: Steady-state emission spectra were recorded on a Varian Cary Eclipse spectrofluorimeter (Varin Instruments, Walnut Creek, Calif.). Time-resolved luminescence decays were measured on a frequency domain fluorimeter (ISS-Koala, Champaign, Ill.) with the following modifications. Blue LED LNG992CFBW (Panasonic, Secaucus, N.J.) driven by a current source was used as the excitation source. The modulation voltage was applied through bias T. The standard radiofrequency amplifier for the photomultiplier tubes was replaced with a ZHL-6A 1-circuits, Brooklyn, N.Y.) to enhance the low-frequency performance. The excitation light was filtered by 500-, 550-, and 650 FL07 short-wave pass filters (Andover, Salem, N.H.). The emission light was filtered by a 500 FH90 long-wave pass filter (Andover). Luminescence decay data were analyzed by nonlinear least-squares methods.
# as §1, with “assay.” for “assay. The submicromolar sensitivity of the protein for glutamine remained virtually unchanged from that observed with the acrylodan label alone, as shown in DATTELBAUM et al., Anal. Biochem., 291:89-95 (2001), which is incorporated by reference herein.”
Molecule,Kd ([1]; listed as single-labeled GlnBP) [nM],Kd [1] [nM],change of calibration curve after storage [2],Kd [3] [nM],selectivity: response to glutamine versus glutamate [4],"ka for the binding ([5]; reported, WEINER et al.) [M⁻¹ s⁻¹]","kd for the dissociation ([5]; reported, WEINER et al.) [s⁻¹]",interference of other DMEM components with glutamine binding ([6]; DMEM diluted 1000× with PBS),"Kd ([6]; from I515/I610 ratio, glutamine standards in DMEM diluted 1000× with PBS, 2.0 μM protein, read-out: apparent binding constant K′d for a single binding site) [nM]","Kd ([5]; literature value, read-out: reported dissociation constant for the wild type) [nM]"
B1,230 ± 10,200,"underwent some changes in 5 months after preparation, but was still responsive to glutamine",163,responsive to glutamine but not to glutamate,9.8e+07,16,–,–,–
B2,–,280 ± 30,–,–,–,–,–,did not interfere with the binding of glutamine,720 ± 100,–
B3,–,–,–,–,–,–,–,–,–,100 to 300

# Reference: patent US7718353B2, “Proteins, sensors, and methods of characterizing analytes using the same” (University of Maryland Baltimore County, priority 2003, dated 2010)
